Target: GFP1-10 tagged with MCP, with nuclear localization sequences
Assay: P3 editing (protein-protein proximity joins crRNA-MS2 and BoxB-petracrRNA; prime editing read by amplicon sequencing); HEK293T cells; 12 designs of crRNA-MS2/BoxB-petracrRNA that vary the upper 4 bp of the Cas9-binding region of the repeat:anti-repeat duplex; tagged split-GFP against standard untagged GFP as background; normalized to the eCTT control

GFP11 tagged with LambdaN, with nuclear localization sequences (peptide)
normalized editing efficiency (GAUA:UAUC design): 3.8%
